Laboratory results published in the supplement of paper PMC11136658.

Test system: peptide library, one residue held at a place counted from the Y acceptor
Experiment: relative phosphorylation of the sub-library (ratio to the mean residue at this position); higher = residue favoured
How it was run: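 Every value reflects phosphorylation relative to the mean randomized residue. The sum of the 18 randomized residues, or 16 in the Ser/Thr-free library, served to normalize intensities at each position, which were then multiplied by that number. Intensities came from phosphorimaging with ImageQuant of biotinylated Tyr-centred peptides captured on streptavidin membranes after 90 min with purified recombinant kinases and 50 μM ATP plus γ-32P-ATP.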

Sequence of FGFR2, construct: aa285-end, human (P21802 285-821, looked up): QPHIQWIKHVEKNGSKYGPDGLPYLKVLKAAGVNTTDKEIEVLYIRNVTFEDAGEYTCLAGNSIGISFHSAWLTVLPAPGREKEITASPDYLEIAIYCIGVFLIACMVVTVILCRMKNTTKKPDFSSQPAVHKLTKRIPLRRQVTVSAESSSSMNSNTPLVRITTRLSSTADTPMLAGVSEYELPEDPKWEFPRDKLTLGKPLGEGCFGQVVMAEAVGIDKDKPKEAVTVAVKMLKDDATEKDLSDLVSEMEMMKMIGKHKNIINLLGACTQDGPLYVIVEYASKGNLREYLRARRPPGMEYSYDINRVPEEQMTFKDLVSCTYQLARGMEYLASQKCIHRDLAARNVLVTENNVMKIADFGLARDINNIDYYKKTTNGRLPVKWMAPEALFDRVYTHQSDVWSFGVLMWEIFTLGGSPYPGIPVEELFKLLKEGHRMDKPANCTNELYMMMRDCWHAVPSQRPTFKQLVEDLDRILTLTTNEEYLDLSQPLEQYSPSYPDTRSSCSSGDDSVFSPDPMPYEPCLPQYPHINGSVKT
Sequence of FGFR4, construct: aa442-end, human (P22455 442-802, looked up): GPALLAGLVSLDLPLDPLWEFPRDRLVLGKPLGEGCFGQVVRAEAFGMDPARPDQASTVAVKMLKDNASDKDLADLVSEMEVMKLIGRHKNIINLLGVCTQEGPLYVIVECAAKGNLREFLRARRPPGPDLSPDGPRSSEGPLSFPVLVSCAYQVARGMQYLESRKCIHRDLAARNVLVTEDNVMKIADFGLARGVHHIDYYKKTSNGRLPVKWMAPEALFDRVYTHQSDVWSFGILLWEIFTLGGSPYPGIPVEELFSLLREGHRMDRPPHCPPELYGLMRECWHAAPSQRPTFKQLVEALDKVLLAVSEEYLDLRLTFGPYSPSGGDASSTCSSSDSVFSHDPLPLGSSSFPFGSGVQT

FGFR2, construct: aa285-end, human (from UniProt P21802)
relative phosphorylation
Settings | at +1 | at +2 | at +3 | at +4 | at +5 | at -1 | at -2 | at -3 | at -4 | at -5
A fixed | 0.967 | 0.586 | 0.554 | 0.848 | 1 | 0.772 | 0.949 | 0.935 | 1.13 | 0.929
D fixed | 0.362 | 0.991 | 0.671 | 0.93 | 1.01 | 2.28 | 1.18 | 1.26 | 1 | 1.09
E fixed | 0.774 | 1.54 | 0.515 | 1.11 | 0.972 | 1.41 | 1.42 | 1.53 | 1.14 | 0.89
F fixed | 1.69 | 1.57 | 1.53 | 1.06 | 0.992 | 0.988 | 0.642 | 0.852 | 0.949 | 0.962
G fixed | 0.345 | 0.353 | 0.495 | 0.981 | 1.32 | 0.506 | 1.09 | 1.09 | 1.2 | 1.27
H fixed | 1.84 | 0.971 | 0.988 | 1.14 | 0.943 | 1.51 | 1.28 | 1.16 | 1.2 | 1.21
I fixed | 1.33 | 0.926 | 1.89 | 0.883 | 0.836 | 1.23 | 0.679 | 0.697 | 0.773 | 0.806
K fixed | 0.55 | 0.524 | 0.303 | 0.868 | 0.819 | 0.5 | 1.19 | 1.01 | 1.13 | 1.33
L fixed | 0.929 | 1.24 | 1.96 | 0.885 | 0.927 | 0.94 | 0.78 | 0.685 | 0.81 | 0.824
M fixed | 1.06 | 1.41 | 1.87 | 1.01 | 0.979 | 0.689 | 0.674 | 0.774 | 0.812 | 0.842
N fixed | 0.472 | 1.01 | 0.488 | 0.865 | 0.987 | 1.3 | 1.14 | 1.28 | 0.939 | 1.05
P fixed | 1.11 | 0.612 | 0.666 | 1.16 | 1.47 | 0.815 | 1.08 | 0.924 | 1.17 | 1.01
Q fixed | 0.953 | 0.78 | 0.776 | 0.97 | 0.832 | 1.04 | 1.12 | 0.892 | 1.03 | 0.952
R fixed | 0.706 | 0.758 | 0.551 | 1.39 | 0.884 | 0.495 | 1.24 | 1.12 | 1.26 | 1.34
S fixed | 0.733 | 0.665 | 0.545 | 0.966 | 1.02 | 0.681 | 1.14 | 1.13 | 0.854 | 0.939
T fixed | 0.901 | 0.827 | 0.737 | 0.918 | 0.983 | 0.805 | 0.939 | 1.08 | 0.721 | 0.883
V fixed | 1.55 | 1.02 | 1.62 | 0.872 | 1.05 | 0.97 | 0.752 | 0.662 | 0.757 | 0.714
W fixed | 1.72 | 2.22 | 1.84 | 1.14 | 0.977 | 1.08 | 0.697 | 0.912 | 1.12 | 0.969
pThr fixed | 0.729 | 1.43 | 0.766 | 0.731 | 0.782 | 1.25 | 1 | 1.1 | 0.883 | 0.849
pTyr fixed | 2.75 | 2.82 | 0.616 | 1.15 | 0.835 | 2.48 | 1.25 | 1.2 | 1.1 | 0.913

FGFR4, construct: aa442-end, human (from UniProt P22455)
relative phosphorylation
Settings | at +1 | at +2 | at +3 | at +4 | at +5 | at -1 | at -2 | at -3 | at -4 | at -5
A fixed | 0.811 | 0.623 | 0.572 | 0.823 | 2.94 | 0.585 | 1.06 | 0.944 | 1.14 | 1.01
D fixed | 0.352 | 1.4 | 0.818 | 1.14 | 0.931 | 2.54 | 1.38 | 1.84 | 1.64 | 1.42
E fixed | 0.566 | 2.01 | 0.647 | 1.39 | 0.71 | 2.03 | 1.75 | 2.52 | 2.01 | 1.38
F fixed | 1.94 | 1.17 | 1.42 | 0.906 | 1.21 | 0.91 | 0.593 | 0.712 | 0.88 | 0.793
G fixed | 0.379 | 0.43 | 0.621 | 1.21 | 0.692 | 0.401 | 1.08 | 1.09 | 1.22 | 1.31
H fixed | 1.55 | 0.88 | 0.767 | 1.13 | 0.954 | 0.985 | 1.05 | 1 | 0.977 | 1.08
I fixed | 1.8 | 1.21 | 2.44 | 0.869 | 0.75 | 1.89 | 0.902 | 0.626 | 0.732 | 0.929
K fixed | 0.29 | 0.37 | 0.27 | 0.602 | 0.913 | 0.311 | 0.693 | 0.614 | 0.699 | 0.845
L fixed | 1.25 | 1.05 | 2.03 | 0.841 | 0.922 | 1.12 | 0.839 | 0.639 | 0.808 | 0.898
M fixed | 1.53 | 1.1 | 1.53 | 1.07 | 0.841 | 0.828 | 0.681 | 0.834 | 0.767 | 0.908
N fixed | 0.341 | 1.04 | 0.425 | 0.873 | 0.832 | 1.03 | 1.05 | 1.25 | 1.03 | 1.1
P fixed | 0.49 | 0.708 | 0.891 | 1.37 | 0.769 | 0.65 | 1.19 | 0.862 | 1.1 | 1.17
Q fixed | 0.678 | 0.705 | 0.524 | 0.94 | 0.927 | 0.646 | 1.11 | 0.901 | 1.07 | 1.03
R fixed | 0.458 | 0.535 | 0.364 | 0.781 | 0.865 | 0.292 | 0.657 | 0.73 | 0.667 | 0.866
S fixed | 0.799 | 0.864 | 0.579 | 0.938 | 0.916 | 0.467 | 1.07 | 1.07 | 0.849 | 0.856
T fixed | 0.807 | 0.934 | 0.686 | 0.88 | 0.625 | 0.966 | 1 | 0.883 | 0.644 | 0.807
V fixed | 1.74 | 1.2 | 1.92 | 0.817 | 0.81 | 1.38 | 1.25 | 0.683 | 0.741 | 0.779
W fixed | 2.22 | 1.77 | 1.5 | 1.43 | 1.4 | 0.952 | 0.639 | 0.794 | 1.02 | 0.811
pThr fixed | 0.826 | 1.95 | 0.731 | 1 | 0.75 | 1.29 | 1.3 | 1.84 | 1.85 | 1.29
pTyr fixed | 3.85 | 6.17 | 1.24 | 1.34 | 0.82 | 7.16 | 1.79 | 2.69 | 2.45 | 1.36

FGR, construct: Full length, human (from UniProt P09769)
relative phosphorylation
Settings | at +1 | at +2 | at +3 | at +4 | at +5 | at -1 | at -2 | at -3 | at -4 | at -5
A fixed | 2.2 | 1.05 | 0.869 | 0.85 | 0.72 | 0.929 | 0.952 | 0.88 | 1.03 | 0.985
D fixed | 0.746 | 0.588 | 0.464 | 0.599 | 0.901 | 1.07 | 1.48 | 1.52 | 1.29 | 1.1
E fixed | 0.732 | 0.949 | 0.432 | 0.759 | 0.875 | 1.89 | 1.37 | 1.52 | 1.36 | 0.85
F fixed | 0.643 | 1.12 | 2.33 | 1.21 | 1.25 | 0.601 | 0.711 | 0.915 | 1.07 | 1.07
G fixed | 2.67 | 0.888 | 0.927 | 1.31 | 0.896 | 0.558 | 1.5 | 1.15 | 1.15 | 1.24
H fixed | 0.762 | 0.846 | 0.969 | 0.953 | 0.936 | 1.45 | 0.995 | 0.999 | 0.933 | 0.966
I fixed | 0.827 | 0.906 | 1.3 | 0.792 | 0.71 | 1.86 | 0.626 | 0.635 | 0.829 | 0.907
K fixed | 0.485 | 0.947 | 0.664 | 1.16 | 1.27 | 0.32 | 0.641 | 0.792 | 0.856 | 0.991
L fixed | 0.669 | 0.903 | 0.954 | 0.884 | 0.831 | 1.02 | 0.747 | 0.746 | 1.07 | 0.939
M fixed | 1.01 | 1.02 | 0.806 | 1.05 | 0.751 | 0.754 | 0.576 | 0.799 | 0.83 | 0.945
N fixed | 0.757 | 1.02 | 0.666 | 0.928 | 1.14 | 0.683 | 1.56 | 1.26 | 0.798 | 1.06
P fixed | 0.226 | 0.839 | 1.02 | 1.2 | 0.977 | 2.09 | 0.878 | 1.02 | 1.17 | 1.15
Q fixed | 0.959 | 0.987 | 0.726 | 1.06 | 0.95 | 0.753 | 1.16 | 0.922 | 1.04 | 0.944
R fixed | 0.519 | 1.22 | 0.98 | 1.39 | 1.4 | 0.291 | 0.738 | 0.883 | 0.875 | 1.1
S fixed | 1.52 | 1.14 | 0.882 | 0.862 | 1.11 | 0.572 | 1.43 | 1.19 | 0.841 | 0.875
T fixed | 1.14 | 1.2 | 0.795 | 0.893 | 1.06 | 1.21 | 1.03 | 0.908 | 0.681 | 0.748
V fixed | 0.955 | 0.904 | 1.05 | 0.781 | 0.712 | 1.38 | 0.738 | 0.594 | 0.733 | 0.749
W fixed | 1.17 | 1.48 | 2.17 | 1.33 | 1.52 | 0.556 | 0.859 | 1.26 | 1.45 | 1.38
pThr fixed | 1.35 | 1.11 | 0.787 | 0.528 | 0.963 | 1.12 | 1.48 | 1.74 | 1.05 | 1.02
pTyr fixed | 1.57 | 1.13 | 0.585 | 0.593 | 0.94 | 0.966 | 2.02 | 1.99 | 1.38 | 1.05
